Data from patent publication US20230035403A1 (Janssen / Centocor, published 2023).

B1: P77 9-mer FFKRAAEGF (peptide)
peptide: FFKRAAEGF
notes: 9-mer fragment of neoantigen P77 (AR-V3); synthetic peptide
B2: P59 9-mer NMVENGCYL (peptide)
peptide: NMVENGCYL
notes: 9-mer fragment of neoantigen P59; synthetic peptide
B3: P37 9-mer GVLRRLLCR (peptide)
peptide: GVLRRLLCR
notes: 9-mer fragment of neoantigen P37; synthetic peptide
B4: P16 9-mer STRRAVRRM (peptide)
peptide: STRRAVRRM
notes: 9-mer fragment of neoantigen P16 (MSMB-NCOA4 fusion); synthetic peptide
B5: P27 9-mer FPVGAEGTF (peptide)
peptide: FPVGAEGTF
notes: 9-mer fragment of neoantigen P27; synthetic peptide
B6: P50 9-mer IQYSCMGLM (peptide)
peptide: IQYSCMGLM
notes: 9-mer fragment of neoantigen P50; synthetic peptide
B7: P35 9-mer NSKMALNSL (peptide)
peptide: NSKMALNSL
notes: 9-mer fragment of neoantigen P35; synthetic peptide

Columns and labels:
Test in all cases: UV-induced peptide exchange, HLA class I ELISA; Pos peptide = 100%;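 note: Streptavidin-captured biotinylated HLA class I complexes detected by HRP-conjugated anti-human B2M antibody, absorbance readout of intact complex amount after exchange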
HLA-A*01:01 = biological target: T1, HLA-A*01:01 (human, biotinylated heavy chain)
T1 construct: Conditional HLA class I complex whose UV-labile peptide is exchanged for the test peptide
Method: (§1) The exchange efficiency between the peptide of interest and Pos was analyzed using an HLA class I ELISA.
(§2) The HLA class I ELISA is an enzyme immunoassay based on the detection of beta2-microglobulin (B2M) of (peptide-stabilized) HLA class I complexes. To this end streptavidin was bound onto polystyrene microtiter wells. After washing and blocking, HLA complex present in exchange reaction mixtures or ELISA controls was captured by the streptavidin on the microtiter plate via its biotinylated heavy chain. Non-bound material was removed by washing. Subsequently, horseradish peroxidase (HRP)-conjugated antibody to human B2M was added. […] In the latter case B2M was removed during the washing step. After removal of non-bound HRP conjugate by washing, a substrate solution was added to the wells. A coloured product formed in proportion to the amount of intact HLA complex present in the samples. After the reaction was terminated by the addition of a stop solution, absorbance was measured in a microtiter plate reader.

HLA-A*03:01 = biological target: T2, HLA-A*03:01 (human, biotinylated heavy chain)
T2 construct: Conditional HLA class I complex whose UV-labile peptide is exchanged for the test peptide
Method: as §1, §2

HLA-A*24:02 = biological target: T3, HLA-A*24:02 (human, biotinylated heavy chain)
T3 construct: Conditional HLA class I complex whose UV-labile peptide is exchanged for the test peptide
Method: as §1, §2

HLA-B*07:02 = biological target: T4, HLA-B*07:02 (human, biotinylated heavy chain)
T4 construct: Conditional HLA class I complex whose UV-labile peptide is exchanged for the test peptide
Method: as §1, §2

HLA-A*02:01 = biological target: T5, HLA-A*02:01 (human, biotinylated heavy chain)
T5 construct: Conditional HLA class I complex whose UV-labile peptide is exchanged for the test peptide
Method: as §1, §2

Binder | exchange rate with Pos peptide (HLA-A*01:01) [%] | exchange rate with Pos peptide (HLA-A*03:01) [%] | exchange rate with Pos peptide (HLA-A*24:02) [%] | exchange rate with Pos peptide (HLA-B*07:02) [%] | exchange rate with Pos peptide (HLA-A*02:01) [%]
B1 | 1.9 | 2.8 | 1.7 | 14.2 | –
B2 | 2.2 | 4.5 | -0.5 | 7.5 | 11.9
B3 | 1.4 | 6.4 | -0.1 | – | 12.5
B4 | 5.5 | 6.1 | 0.8 | 13.7 | 10.4
B5 | 4.8 | 4.5 | 0.7 | 7.8 | 10
B6 | 2.3 | 5.5 | 0.1 | 10.4 | 8.8
B7 | 2.5 | 4.2 | 0.2 | 12.1 | 12.5
